T1: GFRα1 (Homo sapiens, UniProt P56159)
T1 chain: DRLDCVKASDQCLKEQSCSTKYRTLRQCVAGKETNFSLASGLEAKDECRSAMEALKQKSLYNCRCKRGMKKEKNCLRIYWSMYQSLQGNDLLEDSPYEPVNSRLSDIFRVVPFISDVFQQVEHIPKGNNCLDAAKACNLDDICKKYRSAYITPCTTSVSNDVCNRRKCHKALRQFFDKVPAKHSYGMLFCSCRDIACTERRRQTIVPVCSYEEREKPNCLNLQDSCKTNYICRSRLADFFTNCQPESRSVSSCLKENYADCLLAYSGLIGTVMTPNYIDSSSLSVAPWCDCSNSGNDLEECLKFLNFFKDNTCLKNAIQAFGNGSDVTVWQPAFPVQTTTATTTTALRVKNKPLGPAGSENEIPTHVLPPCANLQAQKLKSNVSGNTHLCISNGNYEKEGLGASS

B1: GDNF (protein)
chain: KRSPDKQMAVLPRRERNRQAAAANPENSRGKGRRGQRGKNRGCVLTAIHLNVTDLGLGYETKEELIFRYCSGSCDAAETTYDKILKNLSRNRRLVSDKVGQACCRPIAFDDDLSFLDDNLVYHILRKHSAKRCGCI

Assays:
[1] = target: GFRα1 soluble form (Homo sapiens) (UniProt P56159); assay: SPR; conditions: cited from earlier work
GFRα1 = target: T1, GFRα1; assay: MST

Molecule | Kd [1] [nM] | Kd (GFRα1) [nM]
GDNF (from UniProt P39905) | 0.63 | –
B1 | – | 260

— paper PMC10565809 (2022)
